# Results from patent publication US20230406948A1 (APEXIGEN, published 2023).
# B1: APX005, humanized version of the R-8 rabbit anti-CD40 antibody (antibody, IgG1, V domains shown)
# VH: QVQLVESGGGVVQPGRSLRLSCAASGFSFSSTYVCWVRQAPGKGLEWIACIYTGDGTNYSASWAKGRFTISKDSSKNTVYLQMNSLRAEDTAVYFCARPDITYGFAINFWGPGTLVTVSS
# VL: DIQMTQSPSSLSASVGDRVTIKCQASQSISSRLAWYQQKPGKPPKLLIYRASTLASGVPSRFSGSGSGTDFTLTISSLQPEDVATYYCQCTGYGISWPIGGGTKVEIK
# notes: also called humanized R-8; APX005 wild type
# Legend:
# [1] = molecular target: T1, human CD40 on cells (native CD40 on Ramos cells, human B cells, human monocyte-derived dendritic cells); cell … (human, UniProt P25942 21-193); assay: FACS on live Ramos cells, goat anti-human IgG PE
# T1 construct: Endogenous CD40 on human cells; also called native CD40 protein; CD40 positive cells
# T1 sequence (P25942 21-193): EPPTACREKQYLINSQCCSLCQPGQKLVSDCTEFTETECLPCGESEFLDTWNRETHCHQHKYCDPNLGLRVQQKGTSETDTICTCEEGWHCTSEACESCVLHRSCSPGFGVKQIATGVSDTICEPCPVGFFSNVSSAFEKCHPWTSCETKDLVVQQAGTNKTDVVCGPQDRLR
# Procedure: (§1) In another experiment, the ability of the CD40 antibodies to bind to native CD40 protein was determined by FACS analysis with live Ramos cells. Ramos cells were harvested and blocked with 1.5 ml blocking buffer (0.1% BSA/PBS) for 30 minutes. Antibodies at various concentrations were added to cells and incubated for 1 hour. After washing, 50 ul Goat-anti-human IgG (H+L) PE antibody at 1:1000 dilution in blocking solution was added and incubated for 30 minutes. Cells were then washed with PBS and were re-suspended with […] and analyzed by FACS. The antibodies tested were the 19-21 rabbit anti-CD40 agonist antibody, SGN-40 developed by Seattle Genetics and CP870893 from Pfizer.
# [2] = molecular target: T2, CD40-Fc protein (Homo sapiens (Human), UniProt P25942 21-193); assay: ELISA, plates coated with CD40-Fc protein, OD405nm
# T2 construct: not shown: Fc
# T2 sequence (P25942 21-193 limits assumed): as the sequence (P25942 21-193) above
# Excerpt: In order to assess the ability of the APX005 […] mutant to bind to CD40, APX005 S267E heavy chain and light chain plasmids were purified from transformed bacteria and transfected into 293-6E cell. Four days after transfection, antibody-containing culture supernatants were collected and tested for binding to CD40 using ELISA (ELISA plates coated with CD40-Fc protein).
# [3] = molecular target: T1, human CD40 on cells (native CD40 on …); assay: FACS on live Ramos cells, goat anti-human IgG (H+L) PE
# Procedure: as §1
# [4] = molecular target: T1, human CD40 on cells (native CD40 on …); assay: FACS on Ramos cells, 4 h at 37 C, Alexa 488 goat anti-human IgG
# Procedure: In order to assess the target mediated-internalization of APX005 for evaluating its impact on ADCC activity, Ramos cells were incubated with APX005 for 4 h at 37° C., a temperature permissive for internalization, or at 4° C. for 30 minutes, a temperature at which internalization is minimized. Cells were washed with staining buffer, followed by incubation with Alexa 488 labeled goat anti-human IgG for an additional 30 minutes at 4° C. FACS analysis was performed to examine the level of APX005 on the cell surface.
# [5] = molecular target: T3, fusion protein of rabbit Fc and RANK (UniProt Q9Y6Q6 30-212, limits assumed); assay: direct ELISA, 1 ug/ml rabbit Fc-RANK fusion coated, goat anti-human IgG-HRP
# T3 construct: Neither the species nor the order of the parts is stated; not shown: rabbit Fc
# T3 sequence (looked up): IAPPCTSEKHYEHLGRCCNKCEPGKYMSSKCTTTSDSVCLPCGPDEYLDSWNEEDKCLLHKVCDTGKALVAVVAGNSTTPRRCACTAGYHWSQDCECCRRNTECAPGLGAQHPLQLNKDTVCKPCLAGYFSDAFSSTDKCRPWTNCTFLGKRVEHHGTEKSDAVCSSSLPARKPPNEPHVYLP
# Procedure: (§2) Binding selectivity of APX005 was assessed by direct ELISA to a panel of TNFR family proteins. A total of 1 μg/ml of fusion protein of rabbit Fc and CD40, RANK, TweakR, OX40, DR5 and 4-1 BB were coated on ELISA plates. Bound APX005 was detected using goat anti-human HRP-conjugated IgG.
# [6] = molecular target: T4, fusion protein of rabbit Fc and TweakR (UniProt Q9NP84 28-80, limits assumed); assay: direct ELISA, 1 ug/ml rabbit Fc-TweakR fusion coated, goat anti-human IgG-HRP
# T4 construct: Neither the species nor the order of the parts is stated; not shown: rabbit Fc
# Procedure: as §2
# [7] = molecular target: T5, mouse CD40 (mouse, UniProt P27512 20-193, limits assumed); assay: direct ELISA according to paragraph 284 (1 ug/ml mouse CD40 coated, goat anti-human IgG-HRP); y axis of the sheet reads MFI
# T5 construct: Coated on ELISA plates at 1 ug/ml
# T5 sequence (P27512 20-193 limits assumed): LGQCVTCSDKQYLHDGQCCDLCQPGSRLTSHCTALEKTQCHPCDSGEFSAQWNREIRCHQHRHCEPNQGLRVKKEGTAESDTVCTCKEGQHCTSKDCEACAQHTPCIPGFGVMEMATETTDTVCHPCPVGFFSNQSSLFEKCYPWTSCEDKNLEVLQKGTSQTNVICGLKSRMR
# Procedure: Cross-reactivity was assessed by direct ELISA. A total of 1 μg/ml of human CD40, monkey CD40 or mouse CD40 was coated on ELISA plates followed by incubation with 1 μg/ml of APX005 or control IgG1. Antibodies bound to CD40 were detected using goat anti-human IgG conjugated with HRP. APX005 clearly crossreacts with monkey CD40 but not mouse CD40. (FIG. 11A)
binder,measurement,setting,value
B1,fold higher affinity than CP870893,[1],6 fold
same,EC50,[2],0.0563 µg/mL
same,EC50,[3],0.023 µg/mL
same,EC50 (read off the curve),[4],~0.05 µg/mL
same,binding result,[5],no binding
same,binding result,[6],no binding
same,binding result,[7],no binding
